In IntAct's records for PubMed 12646039:

B1: E3 ubiquitin-protein ligase RHA2A (Arabidopsis thaliana (Mouse-ear cress)), Q9ZT50 (parent)
chain: MGLQGQLSDVSSDSIPLMLLSLLAVFINHLRSFLLRLTSKSNPNLPVDDVSIASGLANIIVLADQLSLNRLFSYRCGDGGGGGSDCVVCLSKLKEGEEVRKLECRHVFHKKCLEGWLHQFNFTCPLCRSALVSDDCVSKTQRSVGRDLISCFSLH
partner: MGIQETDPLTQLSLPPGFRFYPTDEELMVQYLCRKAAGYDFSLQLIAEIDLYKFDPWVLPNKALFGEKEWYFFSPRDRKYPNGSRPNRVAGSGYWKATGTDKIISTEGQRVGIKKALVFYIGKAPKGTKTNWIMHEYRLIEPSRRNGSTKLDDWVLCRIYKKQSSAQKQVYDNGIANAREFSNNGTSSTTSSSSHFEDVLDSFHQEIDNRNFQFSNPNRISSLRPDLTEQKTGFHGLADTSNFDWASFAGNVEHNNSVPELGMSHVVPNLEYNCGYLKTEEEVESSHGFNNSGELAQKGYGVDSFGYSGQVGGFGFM

Variants of: B1
Settings: with nac19_arath NAC019, Q9C932

Row | effect of a mutation on the interaction | Variant
1 | decreasing interaction | MGLQGQLSDVSSDSIPLMLLSLLAVFINHLRSFLLRLTSKSNPNLPVDDVSIASGLANIIVLADQLSLNRLFSYRCGDGGGGGSDCVVSLSKLKEGEEVRKLECRHVFHKKCLEGWLHQFNFTCPLCRSALVSDDCVSKTQRSVGRDLISCFSLH [C89S]
2 | decreasing interaction | MGLQGQLSDVSSDSIPLMLLSLLAVFINHLRSFLLRLTSKSNPNLPVDDVSIASGLANIIVLADQLSLNRLFSYRCGDGGGGGSDCVVCLSKLKEGEEVRKLPCRHVFHKKCLEGWLHQFNFTCPLCRSALVSDDCVSKTQRSVGRDLISCFSLH [E103P]
